Measurements as given in the supplement of paper PMC5998384.

How the values were obtained:
[1] = system: HeLa Kyoto; assay: solubility in G1/S (NP-40 vs SDS abundance) (log2 ratio); higher = more soluble; details: cell cycle stage: G1/S
[2] = system: HeLa Kyoto; assay: melting temperature (median over replicates), in situ; higher = more thermally stable
[3] = system: HeLa Kyoto; assay: solubility change mitosis vs G1/S (difference of NP-40 vs SDS log2 ratios) (log2 ratio difference); higher = more soluble in mitosis
[4] = system: HeLa Kyoto; assay: thermal stability score vs G1/S (z-score of summed log2 fold changes over temperatures); higher = more thermally stable than in G1/S
[5] = cell cycle stage: early G1 (4.5 h after nocodazole release)
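Throughout, for melting temperature (median over replicates), in situ: HeLa Kyoto cells synchronized by double thymidine or nocodazole block, proteins quantified by TMT10plex mass spectrometry, three independent biological replicates.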
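Throughout, for solubility change mitosis vs G1/S (difference of NP-40 vs SDS log2 ratios): synchronized HeLa Kyoto cells (double thymidine block for G1/S, nocodazole release for mitosis), protein amounts in NP-40 versus SDS lysates quantified by mass spectrometry, three biological replicates.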
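Throughout, for solubility in G1/S (NP-40 vs SDS abundance): HeLa Kyoto cells arrested at G1/S by double thymidine block, proteins quantified by TMT10plex mass spectrometry in mild NP-40 versus SDS extracts, three biological replicates.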
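Throughout, for thermal stability score vs G1/S (z-score of summed log2 fold changes over temperatures): synchronized HeLa Kyoto cells, proteins quantified by TMT10plex mass spectrometry, three biological replicates, mitosis taken 0.5 h after nocodazole release, G1/S directly after double thymidine block.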

| Sequence | solubility in G1/S (log2) [1] | melting temperature ([2]; cell cycle stage: G1/S) | melting temperature ([2]; cell cycle stage: mitosis) | solubility change mitosis (log2) [3] | thermal stability score [4, 5] | thermal stability score ([4]; cell cycle stage: mitosis) |
| --- | --- | --- | --- | --- | --- | --- |
| MEKRLGVKPNPASWILSGYYWQTSAKWLRSLYLFYTCFCFSVLWLSTDASESRCQQGKTQFGVGLRSGGENHLWLLEGTPSLQSCWAACCQDSACHVFWWLEGMCIQADCSRPQSCRAFRTHSSNSMLVFLKKFQTADDLGFLPEDDVPHLLGLGWNWASWRQSPPRAALRPAVSSSDQQSLIRKLQKRGSPSDVVTPIVTQHSKVNDSNELGGLTTSGSAEVHKAITISSPLTTDLTAELSGGPKNVSVQPEISEGLATTPSTQQVKSSEKTQIAVPQPVAPSYSYATPTPQASFQSTSAPYPVIKELVVSAGESVQITLPKNEVQLNAYVLQEPPKGETYTYDWQLITHPRDYSGEMEGKHSQILKLSKLTPGLYEFKVIVEGQNAHGEGYVNVTVKPEPRKNRPPIAIVSPQFQEISLPTTSTVIDGSQSTDDDKIVQYHWEELKGPLREEKISEDTAILKLSKLVPGNYTFSLTVVDSDGATNSTTANLTVNKAVDYPPVANAGPNQVITLPQNSITLFGNQSTDDHGITSYEWSLSPSSKGKVVEMQGVRTPTLQLSAMQEGDYTYQLTVTDTIGQQATAQVTVIVQPENNKPPQADAGPDKELTLPVDSTTLDGSKSSDDQKIISYLWEKTQGPDGVQLENANSSVATVTGLQVGTYVFTLTVKDERNLQSQSSVNVIVKEEINKPPIAKITGNVVITLPTSTAELDGSKSSDDKGIVSYLWTRDEGSPAAGEVLNHSDHHPILFLSNLVEGTYTFHLKVTDAKGESDTDRTTVEVKPDPRKNNLVEIILDINVSQLTERLKGMFIRQIGVLLGVLDSDIIVQKIQPYTEQSTKMVFFVQNEPPHQIFKGHEVAAMLKSELRKQKADFLIFRALEVNTVTCQLNCSDHGHCDSFTKRCICDPFWMENFIKVQLRDGDSNCEWSVLYVIIATFVIVVALGILSWTVICCCKRQKGKPKRKSKYKILDATDQESLELKPTSRAGIKQKGLLLSSSLMHSESELDSDDAIFTWPDREKGKLLHGQNGSVPNGQTPLKARSPREEIL [KIAA0319L] | 0.0342 | 58.5 °C | 56.2 °C | 0.0841 | -3.99 | -5.23 |
| MELALRRSPVPRWLLLLPLLLGLNAGAVIDWPTEEGKEVWDYVTVRKDAYMFWWLYYATNSCKNFSELPLVMWLQGGPGGSSTGFGNFEEIGPLDSDLKPRKTTWLQAASLLFVDNPVGTGFSYVNGSGAYAKDLAMVASDMMVLLKTFFSCHKEFQTVPFYIFSESYGGKMAAGIGLELYKAIQRGTIKCNFAGVALGDSWISPVDSVLSWGPYLYSMSLLEDKGLAEVSKVAEQVLNAVNKGLYREATELWGKAEMIIEQNTDGVNFYNILTKSTPTSTMESSLEFTQSHLVCLCQRHVRHLQRDALSQLMNGPIRKKLKIIPEDQSWGGQATNVFVNMEEDFMKPVISIVDELLEAGINVTVYNGQLDLIVDTMGQEAWVRKLKWPELPKFSQLKWKALYSDPKSLETSAFVKSYKNLAFYWILKAGHMVPSDQGDMALKMMRLVTQQE [SCPEP1] | 0.402 | 56.9 °C | 55.6 °C | 0.202 | -2.33 | -0.14 |
| MELQDPKMNGALPSDAVGYRQEREGFLPSRGPAPGSKPVQFMDFEGKTSFGMSVFNLSNAIMGSGILGLAYAMAHTGVIFFLALLLCIALLSSYSIHLLLTCAGIAGIRAYEQLGQRAFGPAGKVVVATVICLHNVGAMSSYLFIIKSELPLVIGTFLYMDPEGDWFLKGNLLIIIVSVLIILPLALMKHLGYLGYTSGLSLTCMLFFLVSVIYKKFQLGCAIGHNETAMESEALVGLPSQGLNSSCEAQMFTVDSQMSYTVPIMAFAFVCHPEVLPIYTELCRPSKRRMQAVANVSIGAMFCMYGLTATFGYLTFYSSVKAEMLHMYSQKDPLILCVRLAVLLAVTLTVPVVLFPIRRALQQLLFPGKAFSWPRHVAIALILLVLVNVLVICVPTIRDIFGVIGSTSAPSLIFILPSIFYLRIVPSEVEPFLSWPKIQALCFGVLGVLFMAVSLGFMFANWATGQSRMSGH [SLC38A5] | -0.0136 | 56.1 °C | 53.1 °C | -0.0437 | -1.85 | -3.24 |
| MELRVGNRYRLGRKIGSGSFGDIYLGTDIAAGEEVAIKLECVKTKHPQLHIESKIYKMMQGGVGIPTIRWCGAEGDYNVMVMELLGPSLEDLFNFCSRKFSLKTVLLLADQMISRIEYIHSKNFIHRDVKPDNFLMGLGKKGNLVYIIDFGLAKKYRDARTHQHIPYRENKNLTGTARYASINTHLGIEQSRRDDLESLGYVLMYFNLGSLPWQGLKAATKRQKYERISEKKMSTPIEVLCKGYPSEFATYLNFCRSLRFDDKPDYSYLRQLFRNLFHRQGFSYDYVFDWNMLKFGASRAADDAERERRDREERLRHSRNPATRGLPSTASGRLRGTQEVAPPTPLTPTSHTANTSPRPVSGMERERKVSMRLHRGAPVNISSSDLTGRQDTSRMSTSQIPGRVASSGLQSVVHR [CSNK1D] | -0.067 | 50.1 °C | 50.9 °C | -0.0573 | -0.73 | -0.371 |
| MELRVLLCWASLAAALEETLLNTKLETADLKWVTFPQVDGQWEELSGLDEEQHSVRTYEVCDVQRAPGQAHWLRTGWVPRRGAVHVYATLRFTMLECLSLPRAGRSCKETFTVFYYESDADTATALTPAWMENPYIKVDTVAAEHLTRKRPGAEATGKVNVKTLRLGPLSKAGFYLAFQDQGACMALLSLHLFYKKCAQLTVNLTRFPETVPRELVVPVAGSCVVDAVPAPGPSPSLYCREDGQWAEQPVTGCSCAPGFEAAEGNTKCRACAQGTFKPLSGEGSCQPCPANSHSNTIGSAVCQCRVGYFRARTDPRGAPCTTPPSAPRSVVSRLNGSSLHLEWSAPLESGGREDLTYALRCRECRPGGSCAPCGGDLTFDPGPRDLVEPWVVVRGLRPDFTYTFEVTALNGVSSLATGPVPFEPVNVTTDREVPPAVSDIRVTRSSPSSLSLAWAVPRAPSGAVLDYEVKYHEKGAEGPSSVRFLKTSENRAELRGLKRGASYLVQVRARSEAGYGPFGQEHHSQTQLDESEGWREQLALIAGTAVVGVVLVLVVIVVAVLCLRKQSNGREAEYSDKHGQYLIGHGTKVYIDPFTYEDPNEAVREFAKEIDVSYVKIEEVIGAGEFGEVCRGRLKAPGKKESCVAIKTLKGGYTERQRREFLSEASIMGQFEHPNIIRLEGVVTNSMPVMILTEFMENGALDSFLRLNDGQFTVIQLVGMLRGIASGMRYLAEMSYVHRDLAARNILVNSNLVCKVSDFGLSRFLEENSSDPTYTSSLGGKIPIRWTAPEAIAFRKFTSASDAWSYGIVMWEVMSFGERPYWDMSNQDVINAIEQDYRLPPPPDCPTSLHQLMLDCWQKDRNARPRFPQVVSALDKMIRNPASLKIVARENGGASHPLLDQRQPHYSAFGSVGEWLRAIKMGRYEESFAAAGFGSFELVSQISAEDLLRIGVTLAGHQKKILASVQHMKSQAKPGTPGGTGGPAPQY [EPHB4] | 0.0967 | 49.4 °C | 48.9 °C | -0.108 | 1.38 | -0.755 |
| MELSDANLQTLTEYLKKTLDPDPAIRRPAEKFLESVEGNQNYPLLLLTLLEKSQDNVIKVCASVTFKNYIKRNWRIVEDEPNKICEADRVAIKANIVHLMLSSPEQIQKQLSDAISIIGREDFPQKWPDLLTEMVNRFQSGDFHVINGVLRTAHSLFKRYRHEFKSNELWTEIKLVLDAFALPLTNLFKATIELCSTHANDASALRILFSSLILISKLFYSLNFQDLPEFFEDNMETWMNNFHTLLTLDNKLLQTDDEEEAGLLELLKSQICDNAALYAQKYDEEFQRYLPRFVTAIWNLLVTTGQEVKYDLLVSNAIQFLASVCERPHYKNLFEDQNTLTSICEKVIVPNMEFRAADEEAFEDNSEEYIRRDLEGSDIDTRRRAACDLVRGLCKFFEGPVTGIFSGYVNSMLQEYAKNPSVNWKHKDAAIYLVTSLASKAQTQKHGITQANELVNLTEFFVNHILPDLKSANVNEFPVLKADGIKYIMIFRNQVPKEHLLVSIPLLINHLQAESIVVHTYAAHALERLFTMRGPNNATLFTAAEIAPFVEILLTNLFKALTLPGSSENEYIMKAIMRSFSLLQEAIIPYIPTLITQLTQKLLAVSKNPSKPHFNHYMFEAICLSIRITCKANPAAVVNFEEALFLVFTEILQNDVQEFIPYVFQVMSLLLETHKNDIPSSYMALFPHLLQPVLWERTGNIPALVRLLQAFLERGSNTIASAAADKIPGLLGVFQKLIASKANDHQGFYLLNSIIEHMPPESVDQYRKQIFILLFQRLQNSKTTKFIKSFLVFINLYCIKYGALALQEIFDGIQPKMFGMVLEKIIIPEIQKVSGNVEKKICAVGITKLLTECPPMMDTEYTKLWTPLLQSLIGLFELPEDDTIPDEEHFIDIEDTPGYQTAFSQLAFAGKKEHDPVGQMVNNPKIHLAQSLHKLSTACPGRVPSMVSTSLNAEALQYLQGYLQAASVTLL [CSE1L] | -0.0863 | 50.4 °C | 49.5 °C | -0.225 | 1.44 | 2.55 |
